Test system: Escherichia coli TOP10
Experiment: shrunken log2 fold change of peptide-encoding DNA abundance (4.5 h post-induction vs induction); higher = less antimicrobial activity (less host growth inhibition)
Settings: time post-induction: 4.5 h; library: site-saturation at positions 5, 18, 19, 20
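Further: peptides expressed intracellularly from a pBAD plasmid library in pooled LB shake-flask culture, induced with 0.3% L-arabinose, DNA abundance read by NGS, three biological replicates, DESeq2 with apeglm shrinkage.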

## RRIRGRPPRLPRPRPRPLMWPRP
  shrunken log2 fold change: 0.4

## RRIRERPPRLPRPRPRPSVWPRP
  shrunken log2 fold change: 0.0602

## RRIRARPPRLPRPRPRPYPRPRP
  shrunken log2 fold change: 0.00693

## RRIRWRPPRLPRPRPRPYVTPRP
  shrunken log2 fold change: -0.385

## RRIRRRPPRLPRPRPRPDDHPRP
  shrunken log2 fold change: -0.276

## RRIRQRPPRLPRPRPRPVMRPRP
  shrunken log2 fold change: 0.444

## RRIRTRPPRLPRPRPRPSQCPRP
  shrunken log2 fold change: -0.239

## RRIRCRPPRLPRPRPRPYANPRP
  shrunken log2 fold change: -0.0471

## RRIRIRPPRLPRPRPRPHCMPRP
  shrunken log2 fold change: -0.697

## RRIRVRPPRLPRPRPRPGCCPRP
  shrunken log2 fold change: 0.385

## RRIRTRPPRLPRPRPRPDQYPRP
  shrunken log2 fold change: -0.0122

## RRIRWRPPRLPRPRPRPLIYPRP
  shrunken log2 fold change: -0.299

## RRIRRRPPRLPRPRPRPFMKPRP
  shrunken log2 fold change: -0.213

## RRIRHRPPRLPRPRPRPNNWPRP
  shrunken log2 fold change: -0.269

## RRIRPRPPRLPRPRPRPFPMPRP
  shrunken log2 fold change: -0.175

## RRIRTRPPRLPRPRPRPNHSPRP
  shrunken log2 fold change: -0.925

## RRIRMRPPRLPRPRPRPRNLPRP
  shrunken log2 fold change: 0.0196

## RRIRVRPPRLPRPRPRPVSFPRP
  shrunken log2 fold change: -0.126

## RRIRVRPPRLPRPRPRPRWDPRP
  shrunken log2 fold change: 0.193

## RRIRHRPPRLPRPRPRPVFCPRP
  shrunken log2 fold change: -0.138

## RRIRVRPPRLPRPRPRPLDEPRP
  shrunken log2 fold change: -0.0276

## RRIRHRPPRLPRPRPRPYDAPRP
  shrunken log2 fold change: -0.271

## RRIRMRPPRLPRPRPRPCKIPRP
  shrunken log2 fold change: -0.0518

## RRIRYRPPRLPRPRPRPYSLPRP
  shrunken log2 fold change: -0.335

## RRIRYRPPRLPRPRPRPMPFPRP
  shrunken log2 fold change: 0.00489

## RRIRNRPPRLPRPRPRPIYQPRP
  shrunken log2 fold change: 0.0607

## RRIRCRPPRLPRPRPRPILDPRP
  shrunken log2 fold change: -0.122

## RRIRIRPPRLPRPRPRPYGFPRP
  shrunken log2 fold change: -0.0889

## RRIRWRPPRLPRPRPRPTHCPRP
  shrunken log2 fold change: 0.213

## RRIRCRPPRLPRPRPRPHTEPRP
  shrunken log2 fold change: -0.273

## RRIRGRPPRLPRPRPRPMGIPRP
  shrunken log2 fold change: 0.0179

## RRIRNRPPRLPRPRPRPTCCPRP
  shrunken log2 fold change: -0.0383

## RRIRPRPPRLPRPRPRPIAEPRP
  shrunken log2 fold change: -0.0633

## RRIRQRPPRLPRPRPRPCCEPRP
  shrunken log2 fold change: -0.256

## RRIRVRPPRLPRPRPRPGLDPRP
  shrunken log2 fold change: 0.0777

## RRIRNRPPRLPRPRPRPWSIPRP
  shrunken log2 fold change: -0.16

## RRIRWRPPRLPRPRPRPWGWPRP
  shrunken log2 fold change: 0.276

## RRIRYRPPRLPRPRPRPKKWPRP
  shrunken log2 fold change: -0.113

## RRIRYRPPRLPRPRPRPMHNPRP
  shrunken log2 fold change: 0.162

## RRIRPRPPRLPRPRPRPFCAPRP
  shrunken log2 fold change: 0.0563

## RRIRVRPPRLPRPRPRPGCMPRP
  shrunken log2 fold change: -0.076

## RRIRSRPPRLPRPRPRPMPYPRP
  shrunken log2 fold change: -0.278

## RRIRDRPPRLPRPRPRPLENPRP
  shrunken log2 fold change: 0.035

## RRIRFRPPRLPRPRPRPEERPRP
  shrunken log2 fold change: 0.477

## RRIRRRPPRLPRPRPRPNQNPRP
  shrunken log2 fold change: 0.14

## RRIRYRPPRLPRPRPRPYNMPRP
  shrunken log2 fold change: -1.09

## RRIRHRPPRLPRPRPRPEVKPRP
  shrunken log2 fold change: 0.104

## RRIRFRPPRLPRPRPRPEWKPRP
  shrunken log2 fold change: 0.0211

## RRIRPRPPRLPRPRPRPFHHPRP
  shrunken log2 fold change: -0.763

## RRIRPRPPRLPRPRPRPKDFPRP
  shrunken log2 fold change: -0.141

## RRIRCRPPRLPRPRPRPEFRPRP
  shrunken log2 fold change: -0.0284

## RRIRKRPPRLPRPRPRPKAWPRP
  shrunken log2 fold change: -0.0159

## RRIRVRPPRLPRPRPRPWLSPRP
  shrunken log2 fold change: -0.0434

## RRIRTRPPRLPRPRPRPLDAPRP
  shrunken log2 fold change: -0.00457

## RRIRDRPPRLPRPRPRPEHNPRP
  shrunken log2 fold change: 0.14

## RRIRQRPPRLPRPRPRPIQFPRP
  shrunken log2 fold change: -0.282

## RRIRRRPPRLPRPRPRPFDCPRP
  shrunken log2 fold change: 0.264

## RRIRQRPPRLPRPRPRPQKRPRP
  shrunken log2 fold change: -0.354

## RRIRWRPPRLPRPRPRPLNSPRP
  shrunken log2 fold change: -0.107

## RRIRFRPPRLPRPRPRPMSYPRP
  shrunken log2 fold change: -0.138

## RRIRHRPPRLPRPRPRPHRQPRP
  shrunken log2 fold change: -0.0335

## RRIRQRPPRLPRPRPRPNVMPRP
  shrunken log2 fold change: -0.254

## RRIRERPPRLPRPRPRPPLRPRP
  shrunken log2 fold change: 0.135

## RRIRMRPPRLPRPRPRPCKGPRP
  shrunken log2 fold change: -0.0617

## RRIRKRPPRLPRPRPRPLKGPRP
  shrunken log2 fold change: -0.022

## RRIRDRPPRLPRPRPRPCGFPRP
  shrunken log2 fold change: -0.0017

## RRIRRRPPRLPRPRPRPTYDPRP
  shrunken log2 fold change: 0.0415

## RRIRGRPPRLPRPRPRPRHIPRP
  shrunken log2 fold change: 0.192

## RRIRKRPPRLPRPRPRPYNGPRP
  shrunken log2 fold change: -0.00151

## RRIRQRPPRLPRPRPRPNCHPRP
  shrunken log2 fold change: -0.548

## RRIRPRPPRLPRPRPRPDNLPRP
  shrunken log2 fold change: -0.35

## RRIRNRPPRLPRPRPRPAEVPRP
  shrunken log2 fold change: -0.144

## RRIRDRPPRLPRPRPRPFRWPRP
  shrunken log2 fold change: 0.317

## RRIRTRPPRLPRPRPRPTAAPRP
  shrunken log2 fold change: 0.211

## RRIRVRPPRLPRPRPRPIIWPRP
  shrunken log2 fold change: -0.098

## RRIRMRPPRLPRPRPRPQFCPRP
  shrunken log2 fold change: 0.0736

## RRIRRRPPRLPRPRPRPHQKPRP
  shrunken log2 fold change: 0.474

## RRIRLRPPRLPRPRPRPTSYPRP
  shrunken log2 fold change: -0.395

## RRIRMRPPRLPRPRPRPRMIPRP
  shrunken log2 fold change: -0.0577

## RRIRERPPRLPRPRPRPELAPRP
  shrunken log2 fold change: 0.161

## RRIRLRPPRLPRPRPRPFHTPRP
  shrunken log2 fold change: -0.00564

## RRIRRRPPRLPRPRPRPNHYPRP
  shrunken log2 fold change: -0.314

## RRIRKRPPRLPRPRPRPEVWPRP
  shrunken log2 fold change: 0.951

## RRIRCRPPRLPRPRPRPTTGPRP
  shrunken log2 fold change: -0.0721

## RRIRRRPPRLPRPRPRPPPHPRP
  shrunken log2 fold change: 0.968

## RRIRNRPPRLPRPRPRPFGTPRP
  shrunken log2 fold change: -0.214

## RRIRKRPPRLPRPRPRPGSDPRP
  shrunken log2 fold change: 0.737

## RRIRIRPPRLPRPRPRPCIYPRP
  shrunken log2 fold change: -0.0179

## RRIRARPPRLPRPRPRPTPVPRP
  shrunken log2 fold change: 0.696

## RRIRWRPPRLPRPRPRPVHYPRP
  shrunken log2 fold change: -0.0467

## RRIRSRPPRLPRPRPRPHHTPRP
  shrunken log2 fold change: -0.625

## RRIRCRPPRLPRPRPRPHQAPRP
  shrunken log2 fold change: -0.0274

## RRIRQRPPRLPRPRPRPFPLPRP
  shrunken log2 fold change: -0.0585

## RRIRQRPPRLPRPRPRPMKMPRP
  shrunken log2 fold change: 0.0133

## RRIRGRPPRLPRPRPRPCWDPRP
  shrunken log2 fold change: 0.217

## RRIRCRPPRLPRPRPRPGDEPRP
  shrunken log2 fold change: 0.105

## RRIRIRPPRLPRPRPRPCTCPRP
  shrunken log2 fold change: -0.652

## RRIRRRPPRLPRPRPRPGKCPRP
  shrunken log2 fold change: -0.283

## RRIRKRPPRLPRPRPRPCYPPRP
  shrunken log2 fold change: -0.446

## RRIRMRPPRLPRPRPRPEECPRP
  shrunken log2 fold change: 0.0665

## RRIRFRPPRLPRPRPRPVNWPRP
  shrunken log2 fold change: 0.253

## RRIRYRPPRLPRPRPRPQIVPRP
  shrunken log2 fold change: -0.342

## RRIRPRPPRLPRPRPRPKLQPRP
  shrunken log2 fold change: -0.00543

## RRIRWRPPRLPRPRPRPWKWPRP
  shrunken log2 fold change: -0.0893

## RRIRGRPPRLPRPRPRPSRMPRP
  shrunken log2 fold change: 0.22

## RRIRMRPPRLPRPRPRPFTWPRP
  shrunken log2 fold change: 0.0653

## RRIRMRPPRLPRPRPRPAQNPRP
  shrunken log2 fold change: 1.07

## RRIRTRPPRLPRPRPRPIQWPRP
  shrunken log2 fold change: 0.015

## RRIRPRPPRLPRPRPRPPKRPRP
  shrunken log2 fold change: 0.496

## RRIRCRPPRLPRPRPRPWGVPRP
  shrunken log2 fold change: 0.122

## RRIRFRPPRLPRPRPRPRTHPRP
  shrunken log2 fold change: 0.114

## RRIRNRPPRLPRPRPRPWIKPRP
  shrunken log2 fold change: -0.739

## RRIRQRPPRLPRPRPRPNLIPRP
  shrunken log2 fold change: -0.556

## RRIRPRPPRLPRPRPRPPTDPRP
  shrunken log2 fold change: 0.184

## RRIRERPPRLPRPRPRPNMAPRP
  shrunken log2 fold change: -0.163

## RRIRNRPPRLPRPRPRPGAFPRP
  shrunken log2 fold change: -0.0452

## RRIRRRPPRLPRPRPRPTKYPRP
  shrunken log2 fold change: -0.198

## RRIRWRPPRLPRPRPRPDFIPRP
  shrunken log2 fold change: -0.395

## RRIRMRPPRLPRPRPRPTETPRP
  shrunken log2 fold change: 0.511

## RRIRFRPPRLPRPRPRPDEKPRP
  shrunken log2 fold change: -0.0935

## RRIRERPPRLPRPRPRPWRVPRP
  shrunken log2 fold change: -0.0327

## RRIRGRPPRLPRPRPRPEGDPRP
  shrunken log2 fold change: 1.94

## RRIRVRPPRLPRPRPRPFPTPRP
  shrunken log2 fold change: 0.756

## RRIRFRPPRLPRPRPRPTIRPRP
  shrunken log2 fold change: -0.41

## RRIRWRPPRLPRPRPRPPEYPRP
  shrunken log2 fold change: 0.539

## RRIRPRPPRLPRPRPRPWHVPRP
  shrunken log2 fold change: -0.0812

## RRIRDRPPRLPRPRPRPTSTPRP
  shrunken log2 fold change: 0.231

## RRIRDRPPRLPRPRPRPCGNPRP
  shrunken log2 fold change: 0.104

## RRIRVRPPRLPRPRPRPILIPRP
  shrunken log2 fold change: -0.413

## RRIRPRPPRLPRPRPRPATKPRP
  shrunken log2 fold change: 0.29

## RRIRKRPPRLPRPRPRPWFCPRP
  shrunken log2 fold change: -0.0352

## RRIRFRPPRLPRPRPRPRWMPRP
  shrunken log2 fold change: -0.149

## RRIRKRPPRLPRPRPRPFIEPRP
  shrunken log2 fold change: -0.205

## RRIRQRPPRLPRPRPRPIDRPRP
  shrunken log2 fold change: 0.118

## RRIRGRPPRLPRPRPRPMPLPRP
  shrunken log2 fold change: 0.606

## RRIRRRPPRLPRPRPRPGWSPRP
  shrunken log2 fold change: 0.472

## RRIRLRPPRLPRPRPRPEWCPRP
  shrunken log2 fold change: -0.131

## RRIRMRPPRLPRPRPRPGVKPRP
  shrunken log2 fold change: 0.172

## RRIRLRPPRLPRPRPRPRPCPRP
  shrunken log2 fold change: 0.421

## RRIRGRPPRLPRPRPRPNYIPRP
  shrunken log2 fold change: -0.099

## RRIRIRPPRLPRPRPRPTWQPRP
  shrunken log2 fold change: 0.0597

## RRIRWRPPRLPRPRPRPKVIPRP
  shrunken log2 fold change: -0.0585

## RRIRWRPPRLPRPRPRPTEYPRP
  shrunken log2 fold change: -0.0755

## RRIRIRPPRLPRPRPRPHCDPRP
  shrunken log2 fold change: -0.0356

## RRIRVRPPRLPRPRPRPAPTPRP
  shrunken log2 fold change: 0.638

## RRIRTRPPRLPRPRPRPKVQPRP
  shrunken log2 fold change: -0.0279

## RRIRFRPPRLPRPRPRPREVPRP
  shrunken log2 fold change: 0.199

## RRIRQRPPRLPRPRPRPCISPRP
  shrunken log2 fold change: -0.177

## RRIRARPPRLPRPRPRPDWIPRP
  shrunken log2 fold change: -0.0382

## RRIRWRPPRLPRPRPRPDTIPRP
  shrunken log2 fold change: -0.019
